Here are results for 125 sequences from the supplement of paper PMC9112550, “Optimization of the antimicrobial peptide Bac7 by deep mutational scanning” (BMC Biology, 2022).
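Note: peptides expressed intracellularly from a pBAD plasmid library in pooled LB shake-flask culture, induced with 0.3% L-arabinose, DNA abundance read by NGS, three biological replicates, DESeq2 with apeglm shrinkage.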

The data set relates to Escherichia coli TOP10. The experiment in a line: shrunken log2 fold change of peptide-encoding DNA abundance (4.5 h post-induction vs induction); higher = less antimicrobial activity (less host growth inhibition). The note with it: time post-induction: 4.5 h; library: site-saturation at positions 5, 18, 19, 20.
RRIRLRPPRLPRPRPRPKMAPRP: the “shrunken log2 fold change” value came to 0.259. For RRIRYRPPRLPRPRPRPCPAPRP, the “shrunken log2 fold change” value is -0.772. For RRIRTRPPRLPRPRPRPMGPPRP, the “shrunken log2 fold change” value is -0.114.

Take RRIRCRPPRLPRPRPRPSNYPRP: the “shrunken log2 fold change” value was -0.348. The result for RRIRRRPPRLPRPRPRPDYKPRP reads -0.284; that for RRIRFRPPRLPRPRPRPQLWPRP, 0.338.

Take RRIRYRPPRLPRPRPRPQYWPRP: the “shrunken log2 fold change” value was -0.696.

On to RRIRPRPPRLPRPRPRPYHSPRP, for which the “shrunken log2 fold change” value was -0.659.

Take RRIRVRPPRLPRPRPRPEPQPRP: the “shrunken log2 fold change” value was 0.363. The result for RRIRTRPPRLPRPRPRPCEVPRP reads 0.0427. As to RRIRNRPPRLPRPRPRPRVCPRP, the “shrunken log2 fold change” value worked out at 0.205. RRIRPRPPRLPRPRPRPLANPRP: the “shrunken log2 fold change” value is -0.0209.

With RRIRARPPRLPRPRPRPHDAPRP, the “shrunken log2 fold change” value came out at 0.122.

In the case of RRIRHRPPRLPRPRPRPVVNPRP, the “shrunken log2 fold change” value was 0.00319.

In the case of RRIRWRPPRLPRPRPRPKDSPRP, the “shrunken log2 fold change” value worked out at 0.118.

RRIRNRPPRLPRPRPRPDFIPRP: the “shrunken log2 fold change” value was -0.111. The result for RRIRQRPPRLPRPRPRPYERPRP reads 0.074; that for RRIRWRPPRLPRPRPRPIKYPRP, -0.744; that for RRIRERPPRLPRPRPRPAEKPRP, -0.0431.

In the case of RRIRGRPPRLPRPRPRPWMMPRP, the “shrunken log2 fold change” value is -0.0114. As to RRIRERPPRLPRPRPRPCKAPRP, the “shrunken log2 fold change” value was -0.0137. On to RRIRPRPPRLPRPRPRPCVLPRP, for which the “shrunken log2 fold change” value is -0.0304. In the case of RRIRERPPRLPRPRPRPLRGPRP, the “shrunken log2 fold change” value came out at 0.529. As for RRIRARPPRLPRPRPRPQKRPRP, the “shrunken log2 fold change” value came to 0.172.

Consider RRIRTRPPRLPRPRPRPRIRPRP, for which the “shrunken log2 fold change” value was determined as 0.0303. The result for RRIRRRPPRLPRPRPRPAMHPRP reads 0.422; that for RRIRVRPPRLPRPRPRPGFCPRP, 0.352; that for RRIRWRPPRLPRPRPRPPDPPRP, 0.296.

Turning to RRIRRRPPRLPRPRPRPICQPRP, the “shrunken log2 fold change” value worked out at 0.133.

Turning to RRIRARPPRLPRPRPRPIRNPRP, the “shrunken log2 fold change” value was -0.179. The result for RRIRLRPPRLPRPRPRPVHQPRP reads 0.244; that for RRIRWRPPRLPRPRPRPVAAPRP, 0.855. Take RRIRRRPPRLPRPRPRPFFLPRP: the “shrunken log2 fold change” value is 0.0467. The result for RRIRHRPPRLPRPRPRPHMVPRP reads -1.01; that for RRIRCRPPRLPRPRPRPDYDPRP, 0.0933. RRIRYRPPRLPRPRPRPKNRPRP: the “shrunken log2 fold change” value is -0.0456. For the sequence RRIRARPPRLPRPRPRPDVMPRP, the “shrunken log2 fold change” value was determined as 0.0669.

Consider RRIRERPPRLPRPRPRPHFPPRP, for which the “shrunken log2 fold change” value is -0.151. The result for RRIRMRPPRLPRPRPRPYLWPRP reads 0.0857.

As for RRIRRRPPRLPRPRPRPGASPRP, the “shrunken log2 fold change” value was determined as 0.665. Take RRIRIRPPRLPRPRPRPNVWPRP: the “shrunken log2 fold change” value was -0.309. Take RRIRFRPPRLPRPRPRPNGHPRP: the “shrunken log2 fold change” value was -0.0454. The result for RRIRCRPPRLPRPRPRPKKFPRP reads -0.00227; that for RRIRFRPPRLPRPRPRPRFCPRP, 0.00666.

With RRIRTRPPRLPRPRPRPENAPRP, the “shrunken log2 fold change” value is -0.49. RRIRLRPPRLPRPRPRPCCYPRP: the “shrunken log2 fold change” value is -0.611. The result for RRIRTRPPRLPRPRPRPDFEPRP reads 0.0498. The result for RRIRLRPPRLPRPRPRPYKTPRP reads -0.352; that for RRIRTRPPRLPRPRPRPWIQPRP, -0.194. RRIRYRPPRLPRPRPRPWVQPRP: the “shrunken log2 fold change” value was -0.544. The result for RRIRLRPPRLPRPRPRPMNPPRP reads -0.0817. The result for RRIRNRPPRLPRPRPRPRTYPRP reads -0.571.

As for RRIRGRPPRLPRPRPRPEALPRP, the “shrunken log2 fold change” value amounted to 1.33.

Turning to RRIRMRPPRLPRPRPRPCSFPRP, the “shrunken log2 fold change” value turned out to be 0.0622. The result for RRIRPRPPRLPRPRPRPWPLPRP reads 0.185. Turning to RRIRSRPPRLPRPRPRPFWAPRP, the “shrunken log2 fold change” value was -0.00411.

As to RRIRGRPPRLPRPRPRPNAFPRP, the “shrunken log2 fold change” value came to 0.665. Take RRIRERPPRLPRPRPRPMDEPRP: the “shrunken log2 fold change” value was -0.153. Consider RRIRKRPPRLPRPRPRPVWKPRP, for which the “shrunken log2 fold change” value worked out at 0.138. The result for RRIRERPPRLPRPRPRPPEAPRP reads 0.192. The result for RRIRCRPPRLPRPRPRPNDSPRP reads -0.221; that for RRIRHRPPRLPRPRPRPQTIPRP, -0.793; that for RRIRHRPPRLPRPRPRPQHIPRP, -0.595. The result for RRIRYRPPRLPRPRPRPTLAPRP reads 0.239; that for RRIRERPPRLPRPRPRPESLPRP, 0.0354; that for RRIRWRPPRLPRPRPRPKKIPRP, 0.0449. RRIRHRPPRLPRPRPRPHAVPRP: the “shrunken log2 fold change” value is -0.0488. On to RRIRLRPPRLPRPRPRPDSWPRP, for which the “shrunken log2 fold change” value is -0.139.

As to RRIRIRPPRLPRPRPRPRDIPRP, the “shrunken log2 fold change” value was -0.203.

RRIRWRPPRLPRPRPRPQYWPRP: the “shrunken log2 fold change” value is -0.184. The result for RRIRWRPPRLPRPRPRPREVPRP reads 0.477; that for RRIRSRPPRLPRPRPRPHPWPRP, -0.0172. For RRIRTRPPRLPRPRPRPAFSPRP, the “shrunken log2 fold change” value is 0.193. Turning to RRIRMRPPRLPRPRPRPAWHPRP, the “shrunken log2 fold change” value stood at 0.726. Take RRIRKRPPRLPRPRPRPPTAPRP: the “shrunken log2 fold change” value turned out to be 0.742. The result for RRIRHRPPRLPRPRPRPQIRPRP reads -0.207; that for RRIRLRPPRLPRPRPRPHWRPRP, 0.147; that for RRIRNRPPRLPRPRPRPVSYPRP, 0.0156. The result for RRIRSRPPRLPRPRPRPNCLPRP reads -0.28. On to RRIRERPPRLPRPRPRPVWNPRP, for which the “shrunken log2 fold change” value is -0.165. The result for RRIRWRPPRLPRPRPRPKNFPRP reads -0.188.

Turning to RRIRFRPPRLPRPRPRPFMCPRP, the “shrunken log2 fold change” value is -0.98.

With RRIRMRPPRLPRPRPRPDADPRP, the “shrunken log2 fold change” value was found to be 3.36.

Regarding RRIRPRPPRLPRPRPRPNIVPRP, the “shrunken log2 fold change” value is -0.342. The result for RRIRWRPPRLPRPRPRPKVGPRP reads 0.0351.

Take RRIRPRPPRLPRPRPRPVLIPRP: the “shrunken log2 fold change” value was -0.237. On to RRIRDRPPRLPRPRPRPMTKPRP, for which the “shrunken log2 fold change” value is -0.0341. As to RRIRIRPPRLPRPRPRPGQVPRP, the “shrunken log2 fold change” value is -0.0393. The result for RRIRRRPPRLPRPRPRPNQNPRP reads 0.14; that for RRIRWRPPRLPRPRPRPMHGPRP, -0.138; that for RRIRPRPPRLPRPRPRPTMWPRP, 0.457. The result for RRIRMRPPRLPRPRPRPVTWPRP reads 0.216.

As to RRIRHRPPRLPRPRPRPWWTPRP, the “shrunken log2 fold change” value stood at 0.00261. The result for RRIRDRPPRLPRPRPRPFQMPRP reads -0.57. The result for RRIRGRPPRLPRPRPRPMPFPRP reads 0.118; that for RRIRHRPPRLPRPRPRPKKRPRP, -0.163. In the case of RRIRLRPPRLPRPRPRPHRSPRP, the “shrunken log2 fold change” value stood at 0.0989. With RRIRLRPPRLPRPRPRPERKPRP, the “shrunken log2 fold change” value was -0.0366. The result for RRIRRRPPRLPRPRPRPFATPRP reads 0.814. As to RRIRDRPPRLPRPRPRPEVVPRP, the “shrunken log2 fold change” value was -0.00213.

Turning to RRIRWRPPRLPRPRPRPEDPPRP, the “shrunken log2 fold change” value turned out to be 0.157. Regarding RRIRDRPPRLPRPRPRPEIAPRP, the “shrunken log2 fold change” value is 1.31.

Take RRIRMRPPRLPRPRPRPFMVPRP: the “shrunken log2 fold change” value was -0.161. The result for RRIRKRPPRLPRPRPRPNWRPRP reads 1.32; that for RRIRTRPPRLPRPRPRPCWYPRP, 4; that for RRIRLRPPRLPRPRPRPLQGPRP, -0.0384. The result for RRIRIRPPRLPRPRPRPWIYPRP reads -0.126; that for RRIRVRPPRLPRPRPRPHVTPRP, -0.304. The result for RRIRMRPPRLPRPRPRPWVDPRP reads -0.034; that for RRIRGRPPRLPRPRPRPSRRPRP, 0.647; that for RRIRARPPRLPRPRPRPQDEPRP, 0.195. Take RRIRTRPPRLPRPRPRPKHYPRP: the “shrunken log2 fold change” value was -0.339. The result for RRIRARPPRLPRPRPRPWMEPRP reads -0.0866; that for RRIRFRPPRLPRPRPRPWNIPRP, -0.0965. Take RRIRERPPRLPRPRPRPHEMPRP: the “shrunken log2 fold change” value is -0.039. RRIRIRPPRLPRPRPRPSCMPRP: the “shrunken log2 fold change” value is -0.637.

Regarding RRIRMRPPRLPRPRPRPVYTPRP, the “shrunken log2 fold change” value stood at 0.194.

For the sequence RRIRLRPPRLPRPRPRPDECPRP, the “shrunken log2 fold change” value was 0.0277. The result for RRIRCRPPRLPRPRPRPSLNPRP reads -0.341; that for RRIRPRPPRLPRPRPRPVEHPRP, 0.00343; that for RRIRDRPPRLPRPRPRPYEMPRP, -0.000896.

As to RRIRCRPPRLPRPRPRPNPVPRP, the “shrunken log2 fold change” value was -0.209.

For the sequence RRIRLRPPRLPRPRPRPNPMPRP, the “shrunken log2 fold change” value came to 0.0102. The result for RRIRNRPPRLPRPRPRPQMWPRP reads -0.234; that for RRIRDRPPRLPRPRPRPYNRPRP, -0.361.
